The results in this text go back to the RNAGym collection of RNA variant scans (doi:10.1093/molbev/msab373).

B1: Azoarcus group I ribozyme (parent)
chain: GUGCCUUGCGCCGGGAAACCACGCAAGGGAUGGUGUCAAAUUCGGCGAAACCUAAGCGCCCGCCCGGGCGUAUGGCAACGCCGAGCCAAGCUUCGGCGCCUGCGCCGAUGAAGGUGUAGAGACUAGACGGCACCCACCUAAGGCAAACGCUAUGGUGAAGGCAUAGUCCAGGGAGUGGCGAAAGUCACACAAACCGG

This data set covers variants of B1. Nature of the data set: reverse-splicing fitness (ratio to wild type); higher = more active; in vitro selection; Mg2+ level not given. In a few lines: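 An in vitro group I ribozyme library with randomized positions was T7-transcribed and gel-purified. In triplicate, 10 pmol RNA in EPPS pH 7.5 was reacted with 50 pmoles of a 30-nt RNA substrate for 1 h at 37 °C across several added MgCl2 levels (1–48 mM), then stopped with EDTA. Products were reverse transcribed from a substrate-complementary primer, PCR-amplified and sequenced (HiSeq 4000). Fitness is a variant's read proportion after selection over that before, normalised to wild type.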
As for C82G A111G A145C C150G C169U U176A, the reverse-splicing fitness stood at 0.00922.

Take C82G A111G A120U A145G: the reverse-splicing fitness is 0.0663. For C82U A111U A145C C150U C169G U176G the value was 0.00575; for C82U A111G A120C C150U C169G U176G, 0.00447; for C82A A111U A120G A145G C150G C169A, 0.0092. The figure for C82G A111G A120C A145C C150A U176C is 0.0111; for C82A A111C A145C C150U C169G U176G it is 0.00845. As for C82A A111C A145C C150U C169G U176C, the reverse-splicing fitness came out at 0.0195.

As to C82G A111U A145U C150U, the reverse-splicing fitness amounted to 0.239.

In the case of C82A A111U C150U U176A, the reverse-splicing fitness is 0.0473. In the case of C82A A111U A120G A145G C150G C169U U176C, the reverse-splicing fitness came to 0.013. The figure for A145C C150U U176A is 0.613; for C82U A111C A120C A145G C150G C169G U176G it is 0.00542; for C82A A120U A145G C169U U176C it is 0.00364. For C82G A111U C150A U176A the value was 0.025. For C82U A111G A120C A145G C150U C169G the value was 0.0102. For the variant A120C C169G U176C, the reverse-splicing fitness was found to be 0.0166.

As to C82G A145U C150U C169U U176G, the reverse-splicing fitness is 0.00492. For C82U A111U C150A U176A, the reverse-splicing fitness amounted to 0.0157.

C82U A111U A120U A145C C150G C169G: the reverse-splicing fitness turned out to be 0.00307. For C82G A111G A120G A145U C150U the value was 0.0155; for C82G A111G A120C C150A C169G U176G, 0.00655; for C82A A120C A145G C150U C169G U176A, 0.0144. The figure for A111U A120C A145U C169U U176C is 0.0439. The figure for C82A A120U A145G C150A C169G U176C is 0.00523; for C82U A145U C150A C169G U176A it is 0.0104. In the case of A111C A120U A145U C150U C169U U176G, the reverse-splicing fitness was determined as 0.00224. With C82A A120C A145C C150A C169U U176G, the reverse-splicing fitness was found to be 0.00481. Regarding C82A A111G A120C C150G U176C, the reverse-splicing fitness stood at 0.00892.

Take C82U A111G A120G A145G C150G U176C: the reverse-splicing fitness amounted to 0.00856.

In the case of C82G A111G C150A C169G, the reverse-splicing fitness was 0.0109.

For the variant C82U A111U A120U A145G C150U C169U, the reverse-splicing fitness is 0.00435. For A111G A120G A145G C150G U176A the value was 0.0132; for C82A A111G A145U C150U C169U U176C, 0.0116. Turning to C82A C169A U176G, the reverse-splicing fitness stood at 0.00441. The figure for C82G A111G A120U C150A C169A U176A is 0.00549; for C82U A111G A120U A145C C150U C169G U176C it is 0.00203.

Regarding C82G A120C A145G C150A C169G U176C, the reverse-splicing fitness amounted to 0.0256. The figure for C82A A120U A145C C150U C169A U176A is 0.00195; for A111G A120U A145C C150U C169G it is 0.0196; for C82G A145U C169U it is 0.0147. The figure for C82U A111G A120G A145U C150U C169A U176G is 0.0045; for C82A A120G A145G C150U C169G it is 0.0197.

Take C82A A120G A145G C150G C169G: the reverse-splicing fitness worked out at 0.00916.

For the variant C82A A120G A145C C150G C169A U176G, the reverse-splicing fitness is 0.00399. The figure for A111G A120C A145C C150G C169G U176A is 0.00746; for C82U A111C A120G A145U U176G it is 0.00452.

With A145C C150A C169G U176C, the reverse-splicing fitness came to 0.0203. The figure for C82G A111U A145U C150G C169U U176G is 0.00664. The figure for C82G A120U A145C C150A C169G U176G is 0.00136; for A111G C150A C169A U176A it is 0.0171; for C82G A120U A145G C150G U176C it is 0.0152.

With C82A A111U A120C C169U U176C, the reverse-splicing fitness is 0.0158. The figure for A111C A120G C150G C169G U176C is 0.00473. For C82G A111C A120U C150G U176C the value was 0.00675; for C82U A111U A120C A145G C150U C169G U176G, 0.00514. The figure for A111U A145C C150U U176C is 0.436; for C82U A111U A120C A145C C150A C169G U176C it is 0.0108; for C82U A111C A120G C150U C169A U176C it is 0.0113.

On to C82G A111G A120G C150A C169A, for which the reverse-splicing fitness amounted to 0.0123. The figure for C82G A111C A120C A145U C150U C169U is 0.0116.

With C82A A111C A120G A145U C150U C169U U176A, the reverse-splicing fitness worked out at 0.0153.

Take C82G A145U C150U U176G: the reverse-splicing fitness is 0.0935. The figure for C82G A111G A120G A145G C150U C169U U176C is 0.0177; for C82G A111G A120G A145C C150G C169U it is 0.00843. For C82U C150U C169A U176C the value was 0.0123; for A120C A145C C150A U176G, 0.0481. The figure for C82U A111G A120G A145C C150G C169G U176A is 0.00868. With A120U A145C C169U U176G, the reverse-splicing fitness came out at 0.0133. With C82A A111G A120G A145C C150G C169U, the reverse-splicing fitness was 0.00786.

With C82A A111G A120C A145U C150A C169U U176C, the reverse-splicing fitness is 0.0123. In the case of C82A A111C A120C A145G U176G, the reverse-splicing fitness was determined as 0.00691.

On to A111U A120G A145C C150A C169U, for which the reverse-splicing fitness turned out to be 0.0118. For A111U A120G A145U C150U the value was 0.104; for A111G A120U A145U C150G C169G, 0.0082; for C82A A111C A120U A145G U176C, 0.0109.

For the variant C82G A111G A145U C169G U176C, the reverse-splicing fitness stood at 0.0147. The figure for C82A A111C A120U C150U C169A U176A is 0.00537.

Regarding A145U C150G U176G, the reverse-splicing fitness was 0.108.

A111G A120G C150A U176G: the reverse-splicing fitness was found to be 0.00663. The figure for A111C A120U C150A U176C is 0.0376; for C82U A111C A120C A145U C150U C169G U176G it is 0.00521. On to C82G A145C C150U C169A, for which the reverse-splicing fitness was 0.00797. For A111G A120U C150G U176G the value was 0.00318.
